pKd: −log10 of the molar value.
Target: JEV-ED3 protein (domain III of the Japanese encephalitis virus envelope protein, aa 303-398, C-terminal His-tag) (Japanese encephalitis virus)
Test: BLI

## recombinant Human EGFR Protein (ECD, hFc Tag) (from UniProt P00533 25-645) (Fc fusion)
  pKd: 6.55
